These results are taken from patent US6780986.

Data set [1] concerns the target T1, GST-Z1 (GST fused to the Z1 domain of RIP60, zinc fingers 1-5).
T1 chain: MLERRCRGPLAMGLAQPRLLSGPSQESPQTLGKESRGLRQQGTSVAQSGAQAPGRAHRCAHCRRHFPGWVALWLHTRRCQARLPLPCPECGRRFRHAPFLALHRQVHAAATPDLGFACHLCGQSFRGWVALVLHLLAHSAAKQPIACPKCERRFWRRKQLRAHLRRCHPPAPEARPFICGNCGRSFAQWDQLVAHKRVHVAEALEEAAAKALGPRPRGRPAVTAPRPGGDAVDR

For data set [2], the target named is T2, GST-Z2 (GST fused to the Z2 domain of RIP60, zinc fingers 6-8 plus 37 amino acids of the proline rich region).
T2 chain: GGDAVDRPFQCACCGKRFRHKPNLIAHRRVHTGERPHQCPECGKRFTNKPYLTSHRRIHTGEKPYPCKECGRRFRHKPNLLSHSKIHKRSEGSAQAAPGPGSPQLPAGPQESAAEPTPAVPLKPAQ

In data set [3] the target is T3, GST-Z3 (GST fused to the Z3 domain of RIP60, zinc fingers 9-15).
T3 chain: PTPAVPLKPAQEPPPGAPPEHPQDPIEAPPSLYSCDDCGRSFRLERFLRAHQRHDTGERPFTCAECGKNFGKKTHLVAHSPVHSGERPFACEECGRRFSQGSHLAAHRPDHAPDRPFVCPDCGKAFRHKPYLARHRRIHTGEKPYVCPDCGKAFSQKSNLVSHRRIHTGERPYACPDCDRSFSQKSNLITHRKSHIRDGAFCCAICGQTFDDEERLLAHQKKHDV

The target in the next data set is T4, GST-Z2-P123.
T4 chain: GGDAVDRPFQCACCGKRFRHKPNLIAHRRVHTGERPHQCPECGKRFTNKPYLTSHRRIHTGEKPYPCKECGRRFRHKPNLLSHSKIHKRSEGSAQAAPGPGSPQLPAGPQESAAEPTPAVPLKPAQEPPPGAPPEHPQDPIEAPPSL

B1: casein kinase II (CKII; New England Biolabs) (protein)
chain 1: MSGPVPSRARVYTDVNTHRPREYWDYESHVVEWGNQDDYQLVRKLGRGKYSEVFEAINITNNEKVVVKILKPVKKKKIKREIKILENLRGGPNIITLADIVKDPVSRTPALVFEHVNNTDFKQLYQTLTDYDIRFYMYEILKALDYCHSMGIMHRDVKPHNVMIDHEHRKLRLIDWGLAEFYHPGQEYNVRVASRYFKGPELLVDYQMYDYSLDMWSLGCMLASMIFRKEPFFHGHDNYDQLVRIAKVLGTEDLYDYIDKYNIELDPRFNDILGRHSRKRWERFVHSENQHLVSPEALDFLDKLLRYDHQSRLTAREAMEHPYFYTVVKDQARMGSSSMPGGSTPVSSANMMSGISSVPTPSPLGPLAGSPVIAAANPLGMPVPAAAGAQQ
chain 2: not shown
As for B1, the “phosphorylation in vitro (32P-ATP, SDS gel, autoradiography)” value in data set [1] was “neither GST-Z1 nor GST-Z3 were phosphorylated to any great degree”; in data set [2], “Only the GST-Z2 polypeptide, which contains the casein kinase II phosphorylation domain was phosphorylated”; in data set [3], “neither GST-Z1 nor GST-Z3 were phosphorylated to any great degree”; with GST-Z2-P123 it was “Both GST-Z2 and GST-Z2P123 were phosphorylated”. Further, the “phosphorylation in vitro with and without DNA (32P-ATP, SDS gel, autoradiography)” value in data set [2] is “GST-Z2 polypeptide was phosphorylated by casein kinase II in the absence of DNA. However, the extent of phosphorylation increased in the presence of the double stranded DRS oligo, the linearized plasmid pCH127 and the supercoiled pCH127”.
